Results on 21 molecules are retold here after patent US20040131609A1 (published 2004).

B1: clone 3 (PFFF) (Fab, V domains shown)
VH: QVTLRESGPALVKPTQTLTLTCTFSGFSLSTPGMSVGWIRQPPGKALEWLADIWWDDKKDYNPSLKSRLTISKDTSKNQVVLKVTNMDPADTATYYCARSMITNFYFDVWGQGTTVTVSS
VL: DIQMTQSPSTLSASVGDRVTITCSASSSVGYMHWYQQKPGKAPKLLIYDTFKLASGVPSRFSGSGSGTEFTLTISSLQPDDFATYYCFQGSFYPFTFGGGTKVEIK
B2: clone 5 (PFFW) (antibody, V domains shown)
VH: QVTLRESGPALVKPTQTLTLTCTFSGFSLSTPGMSVGWIRQPPGKALEWLADIWWDDKKDYNPSLKSRLTISKDTSKNQVVLKVTNMDPADTATYYCARSMITNFYFDVWGQGTTVTVSS
VL: DIQMTQSPSTLSASVGDRVTITCSASSSVGYMHWYQQKPGKAPKLLIYDTFKLASGVPSRFSGSGSGTEFTLTISSLQPDDFATYYCFQGSWYPFTFGGGTKVEIK
B3: clone 7 (PFFG) (antibody, V domains shown)
VH: QVTLRESGPALVKPTQTLTLTCTFSGFSLSTPGMSVGWIRQPPGKALEWLADIWWDDKKDYNPSLKSRLTISKDTSKNQVVLKVTNMDPADTATYYCARSMITNFYFDVWGQGTTVTVSS
VL: DIQMTQSPSTLSASVGDRVTITCSASSSVGYMHWYQQKPGKAPKLLIYDTFKLASGVPSRFSGSGSGTEFTLTISSLQPDDFATYYCFQGSGYPFTFGGGTKVEIK
B4: clone 19 (SFSW) (antibody, V domains shown)
VH: QVTLRESGPALVKPTQTLTLTCTFSGFSLSTSGMSVGWIRQPPGKALEWLADIWWDDKKDYNPSLKSRLTISKDTSKNQVVLKVTNMDPADTATYYCARSMITNFYFDVWGQGTTVTVSS
VL: DIQMTQSPSTLSASVGDRVTITCSASSSVGYMHWYQQKPGKAPKLLIYDTSKLASGVPSRFSGSGSGTEFTLTISSLQPDDFATYYCFQGSWYPFTFGGGTKVEIK
B5: clone 2 (AFFG) (Fab, V domains shown)
VH: QVTLRESGPALVKPTQTLTLTCTFSGFSLSTAGMSVGWIRQPPGKALEWLADIWWDDKKDYNPSLKSRLTISKDTSKNQVVLKVTNMDPADTATYYCARSMITNFYFDVWGQGTTVTVSS
VL: DIQMTQSPSTLSASVGDRVTITCSASSSVGYMHWYQQKPGKAPKLLIYDTFKLASGVPSRFSGSGSGTEFTLTISSLQPDDFATYYCFQGSGYPFTFGGGTKVEIK
B6: clone 4 (PFFY) (antibody, V domains shown)
VH: QVTLRESGPALVKPTQTLTLTCTFSGFSLSTPGMSVGWIRQPPGKALEWLADIWWDDKKDYNPSLKSRLTISKDTSKNQVVLKVTNMDPADTATYYCARSMITNFYFDVWGQGTTVTVSS
VL: DIQMTQSPSTLSASVGDRVTITCSASSSVGYMHWYQQKPGKAPKLLIYDTFKLASGVPSRFSGSGSGTEFTLTISSLQPDDFATYYCFQGSYYPFTFGGGTKVEIK
B7: clone 15 (AFSG) (antibody, V domains shown)
VH: QVTLRESGPALVKPTQTLTLTCTFSGFSLSTAGMSVGWIRQPPGKALEWLADIWWDDKKDYNPSLKSRLTISKDTSKNQVVLKVTNMDPADTATYYCARSMITNFYFDVWGQGTTVTVSS
VL: DIQMTQSPSTLSASVGDRVTITCSASSSVGYMHWYQQKPGKAPKLLIYDTSKLASGVPSRFSGSGSGTEFTLTISSLQPDDFATYYCFQGSGYPFTFGGGTKVEIK
B8: clone 12 (PWFF) (antibody, V domains shown)
VH: QVTLRESGPALVKPTQTLTLTCTFSGFSLSTPGMSVGWIRQPPGKALEWLADIWWDDKKDYNPSLKSRLTISKDTSKNQVVLKVTNMDPADTATYYCARSMITNWYFDVWGQGTTVTVSS
VL: DIQMTQSPSTLSASVGDRVTITCSASSSVGYMHWYQQKPGKAPKLLIYDTFKLASGVPSRFSGSGSGTEFTLTISSLQPDDFATYYCFQGSFYPFTFGGGTKVEIK
B9: clone 18 (SFFG) (antibody, V domains shown)
VH: QVTLRESGPALVKPTQTLTLTCTFSGFSLSTSGMSVGWIRQPPGKALEWLADIWWDDKKDYNPSLKSRLTISKDTSKNQVVLKVTNMDPADTATYYCARSMITNFYFDVWGQGTTVTVSS
VL: DIQMTQSPSTLSASVGDRVTITCSASSSVGYMHWYQQKPGKAPKLLIYDTFKLASGVPSRFSGSGSGTEFTLTISSLQPDDFATYYCFQGSGYPFTFGGGTKVEIK
B10: clone 1 (AFSF) (Fab, V domains shown)
VH: QVTLRESGPALVKPTQTLTLTCTFSGFSLSTAGMSVGWIRQPPGKALEWLADIWWDDKKDYNPSLKSRLTISKDTSKNQVVLKVTNMDPADTATYYCARSMITNFYFDVWGQGTTVTVSS
VL: DIQMTQSPSTLSASVGDRVTITCSASSSVGYMHWYQQKPGKAPKLLIYDTSKLASGVPSRFSGSGSGTEFTLTISSLQPDDFATYYCFQGSFYPFTFGGGTKVEIK
B11: clone 14 (SFFW) (antibody, V domains shown)
VH: QVTLRESGPALVKPTQTLTLTCTFSGFSLSTSGMSVGWIRQPPGKALEWLADIWWDDKKDYNPSLKSRLTISKDTSKNQVVLKVTNMDPADTATYYCARSMITNFYFDVWGQGTTVTVSS
VL: DIQMTQSPSTLSASVGDRVTITCSASSSVGYMHWYQQKPGKAPKLLIYDTFKLASGVPSRFSGSGSGTEFTLTISSLQPDDFATYYCFQGSWYPFTFGGGTKVEIK
B12: clone 20 (SFSF) (antibody, V domains shown)
VH: QVTLRESGPALVKPTQTLTLTCTFSGFSLSTSGMSVGWIRQPPGKALEWLADIWWDDKKDYNPSLKSRLTISKDTSKNQVVLKVTNMDPADTATYYCARSMITNFYFDVWGQGTTVTVSS
VL: DIQMTQSPSTLSASVGDRVTITCSASSSVGYMHWYQQKPGKAPKLLIYDTSKLASGVPSRFSGSGSGTEFTLTISSLQPDDFATYYCFQGSFYPFTFGGGTKVEIK
B13: clone 16 (PFSG) (antibody, V domains shown)
VH: QVTLRESGPALVKPTQTLTLTCTFSGFSLSTPGMSVGWIRQPPGKALEWLADIWWDDKKDYNPSLKSRLTISKDTSKNQVVLKVTNMDPADTATYYCARSMITNFYFDVWGQGTTVTVSS
VL: DIQMTQSPSTLSASVGDRVTITCSASSSVGYMHWYQQKPGKAPKLLIYDTSKLASGVPSRFSGSGSGTEFTLTISSLQPDDFATYYCFQGSGYPFTFGGGTKVEIK
B14: clone 10 (PFSF) (antibody, V domains shown)
VH: QVTLRESGPALVKPTQTLTLTCTFSGFSLSTPGMSVGWIRQPPGKALEWLADIWWDDKKDYNPSLKSRLTISKDTSKNQVVLKVTNMDPADTATYYCARSMITNFYFDVWGQGTTVTVSS
VL: DIQMTQSPSTLSASVGDRVTITCSASSSVGYMHWYQQKPGKAPKLLIYDTSKLASGVPSRFSGSGSGTEFTLTISSLQPDDFATYYCFQGSFYPFTFGGGTKVEIK
B15: clone 11 (PWFW) (antibody, V domains shown)
VH: QVTLRESGPALVKPTQTLTLTCTFSGFSLSTPGMSVGWIRQPPGKALEWLADIWWDDKKDYNPSLKSRLTISKDTSKNQVVLKVTNMDPADTATYYCARSMITNWYFDVWGQGTTVTVSS
VL: DIQMTQSPSTLSASVGDRVTITCSASSSVGYMHWYQQKPGKAPKLLIYDTFKLASGVPSRFSGSGSGTEFTLTISSLQPDDFATYYCFQGSWYPFTFGGGTKVEIK
B16: clone 9 (PFSW) (antibody, V domains shown)
VH: QVTLRESGPALVKPTQTLTLTCTFSGFSLSTPGMSVGWIRQPPGKALEWLADIWWDDKKDYNPSLKSRLTISKDTSKNQVVLKVTNMDPADTATYYCARSMITNFYFDVWGQGTTVTVSS
VL: DIQMTQSPSTLSASVGDRVTITCSASSSVGYMHWYQQKPGKAPKLLIYDTSKLASGVPSRFSGSGSGTEFTLTISSLQPDDFATYYCFQGSWYPFTFGGGTKVEIK
B17: clone 13 (SFFF) (antibody, V domains shown)
VH: QVTLRESGPALVKPTQTLTLTCTFSGFSLSTSGMSVGWIRQPPGKALEWLADIWWDDKKDYNPSLKSRLTISKDTSKNQVVLKVTNMDPADTATYYCARSMITNFYFDVWGQGTTVTVSS
VL: DIQMTQSPSTLSASVGDRVTITCSASSSVGYMHWYQQKPGKAPKLLIYDTFKLASGVPSRFSGSGSGTEFTLTISSLQPDDFATYYCFQGSFYPFTFGGGTKVEIK
B18: clone 21 (SWYF) (antibody, V domains shown)
VH: QVTLRESGPALVKPTQTLTLTCTFSGFSLSTSGMSVGWIRQPPGKALEWLADIWWDDKKDYNPSLKSRLTISKDTSKNQVVLKVTNMDPADTATYYCARSMITNWYFDVWGQGTTVTVSS
VL: DIQMTQSPSTLSASVGDRVTITCSASSSVGYMHWYQQKPGKAPKLLIYDTYKLASGVPSRFSGSGSGTEFTLTISSLQPDDFATYYCFQGSFYPFTFGGGTKVEIK
B19: clone 6 (PFYF) (antibody, V domains shown)
VH: QVTLRESGPALVKPTQTLTLTCTFSGFSLSTPGMSVGWIRQPPGKALEWLADIWWDDKKDYNPSLKSRLTISKDTSKNQVVLKVTNMDPADTATYYCARSMITNFYFDVWGQGTTVTVSS
VL: DIQMTQSPSTLSASVGDRVTITCSASSSVGYMHWYQQKPGKAPKLLIYDTYKLASGVPSRFSGSGSGTEFTLTISSLQPDDFATYYCFQGSFYPFTFGGGTKVEIK
B20: clone 17 (PWSW) (antibody, V domains shown)
VH: QVTLRESGPALVKPTQTLTLTCTFSGFSLSTPGMSVGWIRQPPGKALEWLADIWWDDKKDYNPSLKSRLTISKDTSKNQVVLKVTNMDPADTATYYCARSMITNWYFDVWGQGTTVTVSS
VL: DIQMTQSPSTLSASVGDRVTITCSASSSVGYMHWYQQKPGKAPKLLIYDTSKLASGVPSRFSGSGSGTEFTLTISSLQPDDFATYYCFQGSWYPFTFGGGTKVEIK
B21: reference antibody IX-493 (SWSG) (Fab, V domains shown)
VH: QVTLRESGPALVKPTQTLTLTCTFSGFSLSTSGMSVGWIRQPPGKALEWLADIWWDDKKDYNPSLKSRLTISKDTSKNQVVLKVTNMDPADTATYYCARSMITNWYFDVWGQGTTVTVSS
VL: DIQMTQSPSTLSASVGDRVTITCSASSSVGYMHWYQQKPGKAPKLLIYDTSKLASGVPSRFSGSGSGTEFTLTISSLQPDDFATYYCFQGSGYPFTFGGGTKVEIK
notes: also called Basic; basic antibody

In this test the target is T1, RSV F antigen (respiratory syncytial virus (RSV), UniProt P03420 26-524).
T1 construct: also called F antigen of RSV; RSV F protein
T1 sequence (P03420 26-524): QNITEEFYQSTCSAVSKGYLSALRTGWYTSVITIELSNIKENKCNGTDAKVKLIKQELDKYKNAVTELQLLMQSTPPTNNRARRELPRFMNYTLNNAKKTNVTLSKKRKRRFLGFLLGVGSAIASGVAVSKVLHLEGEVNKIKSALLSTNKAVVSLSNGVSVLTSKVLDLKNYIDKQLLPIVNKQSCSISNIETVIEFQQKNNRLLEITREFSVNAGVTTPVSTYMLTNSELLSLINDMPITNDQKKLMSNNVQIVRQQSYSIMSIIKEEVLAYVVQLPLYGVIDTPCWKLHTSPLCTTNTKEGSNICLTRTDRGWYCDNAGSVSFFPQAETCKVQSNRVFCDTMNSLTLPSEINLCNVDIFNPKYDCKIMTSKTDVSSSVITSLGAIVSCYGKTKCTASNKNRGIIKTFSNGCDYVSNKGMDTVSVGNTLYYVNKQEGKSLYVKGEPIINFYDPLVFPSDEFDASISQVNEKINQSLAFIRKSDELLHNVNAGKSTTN
Briefly: antibody titration ELISA on 500 ng RSV F antigen; qualitative score from titration curves. On the technique in general: An ELISA detects its analyte on a solid surface through an enzyme-linked reagent.
As for B1, the “Ag Score” value is 4 arbitrary score (0-4).

As to B2, the “Ag Score” value is 3.5 arbitrary score (0-4).

On to B3, for which the “Ag Score” value was 3 arbitrary score (0-4).

On to B4, for which the “Ag Score” value is 2 arbitrary score (0-4).

As for B5, the “Ag Score” value was 4 arbitrary score (0-4).

Turning to B6, the “Ag Score” value was 3.5 arbitrary score (0-4).

In the case of B7, the “Ag Score” value is 2.5 arbitrary score (0-4).

On to B8, for which the “Ag Score” value is 2.5 arbitrary score (0-4).

For the molecule B9, the “Ag Score” value was 2 arbitrary score (0-4).

For the molecule B10, the “Ag Score” value was 4 arbitrary score (0-4).

On to B11, for which the “Ag Score” value was 2.5 arbitrary score (0-4).

Turning to B12, the “Ag Score” value was 2 arbitrary score (0-4).

In the case of B13, the “Ag Score” value is 2 arbitrary score (0-4).

Consider B14, for which the “Ag Score” value is 3 arbitrary score (0-4).

On to B15, for which the “Ag Score” value is 3 arbitrary score (0-4).

With B16, the “Ag Score” value was 3 arbitrary score (0-4).

Turning to B17, the “Ag Score” value is 2.5 arbitrary score (0-4).

Turning to B18, the “Ag Score” value was 2 arbitrary score (0-4).

In the case of B19, the “Ag Score” value was 3.5 arbitrary score (0-4).

Take B20: the “Ag Score” value is 2 arbitrary score (0-4).

As for B21, the “Ag Score” value is 0.1 arbitrary score (0-4).
